Patent US12570725 (DUKE UNIVERSITY, dated 2026)

Legend:
Assay in all cases: cell-based or functional assay
[1] = target: Dengue virus serotype 2 virion (Dengue virus serotype 2)
[2] = target: Dengue virus serotype 3 virion (Dengue virus serotype 3)
[3] = target: Dengue virus serotype 4 virion (Dengue virus serotype 4)
[4] = target: Dengue virus serotype 1 virion (Dengue virus serotype 1)

Measured: FRNT50

B1: 119-1-D7 (antibody, V domains shown)
VH: EVQLVESGGGLVKPGGSLRLSCVASGFTFNIYNMNWVRQAPGRGLEWVSSISLSSSYIDYADSVEGRFTISRDNAKNSLSLQMNSLKAEDTAVYYCARGRRGEWLVLHDAFDLWGQGTLVTVSS
VL: EIVLTQSPDTLSLSPGEGATLSCRASRTITSTYLAWYQQKPGQAPRLLMYSVSTRAPGIPDRFSGSGSGTDFTLTISRLEPEDFAVYFCQQYGSTPPYTFGQGTKLEIR
> 5 µg/mL: [1] | [2] | [3] | [4]
